According to patent publication US9657104B2, “Anti-c-Met/anti-EGFR bispecific antibodies” (Samsung Electronics Co., Ltd., priority 2013, dated 2017):

Tested on: c-Met and EGFR
Experiment: Co-localization of c-Met and EGFR by confocal microscopy
Format: cell-based
Conditions: 1 μg/mL, 37° C., 4 hours; MKN45 and EBC1 cell lines; FIGS. 7 and 8
Procedure: The MKN45 cell line and the EBC1 cell line were prepared in amounts of 4×10^4 cell/well, respectively, to which L3-1Y-IgG2 prepared in Reference Example 1, anti-EGFR scFv prepared in Reference Example 2, and the anti-c-Met/anti-EGFR bispecific antibody ME03S prepared in Example 1 were each added individually or in combination to result in the concentration of 1 μg/mL per well (in case of the combination treatment, to result in 1 μg/mL each) and treated at 37° C. for 4 hours. The cells were treated with 4% (v/v) formaldehyde for 15 min to immobilize them on a plate, and washed three times with PBS. Thereafter, the cells were treated with a blocking buffer (0.5% triton x-100 and 5% donkey serum) at a room temperature for one hour and then treated with a 1:100 dilution of the first antibodies (c-Met primary antibody; #FAB3582A, R&D systems, EGFR primary antibody; #5616, Cell signaling) against c-Met and EGFR, respectively in amounts of 100 μA at 4° C. for 15 hours. After the cells were washed three time with PBS, they were treated with a 1:2000 dilution of the secondary antibody (#A21433, Invitrogen) in an amount of 100 μA at a room temperature for 1 hour and washed three times with PBS to prepare a plate with a mounting medium (#H-1200, Vector).

B1: anti-EGFR scFv: scFv with heavy chain variable region SEQ ID NO: 109, (GGGGS)3 linker, light chain variable region SEQ ID NO: 111 (antibody, V domains shown)
VH: QVQLVQSGAEVKKPGSSVKVSCKASGFTFTDYKIHWVRQAPGQGLEWMGYFNPNSGYSTYAQKFQGRVTITADKSTSTAYMELSSLRSEDTAVYYCARLSPGGYYVMDAWGQGTTVTVSS
VL: DIQMTQSPSSLSASVGDRVTITCRASQGINNYLNWYQQKPGKAPKRLIYNTNNLQTGVPSRFSGSGSGTEFTLTISSLQPEDFATYYCLQHNSFPTFGQGTKLEIKRT
modifications: (GGGGS)3 linker; Synthetic (heavy-chain variable region of anti-EGFR antibody); Synthetic (light-chain variable region of anti-EGFR antibody)
- location of c-Met and EGFR in the cells: EGFR still locates on cell membranes
